From patent publication US20220144932A1

Columns and labels:
[1] = target: Recombinant FAM19A5 rabbit Fc fusion protein (human; rabbit) (UniProt Q7Z5A7); experiment: flow cytometry, blocking: FAM19A5-rFc (1 µM) with scFv-Cκ (5 µM) on mouse primary glial cells; blocked: binding of FAM19A5-rFc to the cells
[2] = target: Recombinant FAM19A5 rabbit Fc fusion protein (human; rabbit) (UniProt Q7Z5A7); experiment: flow cytometry, blocking: FAM19A5-rFc (1 µM) with scFv-Cκ (5 µM) on human glioblastoma cell line U87MG; blocked: binding of FAM19A5-rFc to the cells

B1: 2-13 anti-FAM19A5 scFv human Cκ fusion protein (scFv, not shown: a dimerising Fc or GST)
scFv: ALTQPSSVSANPGETVKITCSGGSYSYGWFQQKSPGSALVTVIYWDDERPSDIPSRFSGALSGSTNTLTITGVQADDEAVYFCGTEDISGTAGVFGAGTTLTVLGQSSRSSGGGGSSGGGGSAVTLDESGGGLQTPGGALSLVCKASGFTFSSHGMFWVRQTPGKGLEYVAEITNDGSGTNYGSAVKGRATISRDNGQSTVRLQLNNLRAEDTGTYFCARSTYECPGGFSCWGDTGQIDAWGHGTEVIVSS
**Q.** What does the source list for B1?
**A.** percent reduction of MFI [1]: 88.9%; percent reduction of MFI [2]: 69.6%
